Assay results as given in patent US20240165282A1, “CONFORMATIONAL CONSTRAINED SOMATOSTATIN RECEPTOR 3 PEPTIDE LIGANDS AND THEIR CONJUGATES AND USES THEREOF” (STARGET PHARMA LTD., priority 2021, published 2024).

Target: human cloned somatostatin receptor 2 (human) (UniProt P30874)
Assay: cell-based or functional assay

Chain of human cloned somatostatin receptor 2 (human) (P30874 whole entry): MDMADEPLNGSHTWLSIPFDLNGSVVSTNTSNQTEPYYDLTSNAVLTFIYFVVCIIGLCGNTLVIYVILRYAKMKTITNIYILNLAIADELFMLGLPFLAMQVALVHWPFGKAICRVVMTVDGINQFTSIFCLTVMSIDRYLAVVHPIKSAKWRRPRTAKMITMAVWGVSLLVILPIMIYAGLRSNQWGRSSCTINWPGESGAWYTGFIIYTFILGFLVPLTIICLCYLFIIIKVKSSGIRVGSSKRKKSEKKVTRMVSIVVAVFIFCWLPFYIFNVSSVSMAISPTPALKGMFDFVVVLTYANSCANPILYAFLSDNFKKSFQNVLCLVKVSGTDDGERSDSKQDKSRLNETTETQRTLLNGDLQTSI

- Cellular Internalization EC50 (β-Arrestin Luminescence Assay): 3 nM
- Efficacy - maximal response: 47500 RLU
Substance: SRIF-28 (from UniProt P61278 89-116) (ligand)
